Legend:
[1] = target: T1, RecD2 (His-tagged) (Bacillus subtilis, UniProt O34481 1-798); assay: EMSA; settings: 2 mM MgCl2, 1 mM ATPgS, EMSA: 0.25 nM 32P-DNA, buffer B (composition not in material), 2 mM MgCl2 (or 10 mM), 15 min 37 C, then 0.05% glutaraldehyde 15 min 37 C, 8% PAGE …
T1 sequence: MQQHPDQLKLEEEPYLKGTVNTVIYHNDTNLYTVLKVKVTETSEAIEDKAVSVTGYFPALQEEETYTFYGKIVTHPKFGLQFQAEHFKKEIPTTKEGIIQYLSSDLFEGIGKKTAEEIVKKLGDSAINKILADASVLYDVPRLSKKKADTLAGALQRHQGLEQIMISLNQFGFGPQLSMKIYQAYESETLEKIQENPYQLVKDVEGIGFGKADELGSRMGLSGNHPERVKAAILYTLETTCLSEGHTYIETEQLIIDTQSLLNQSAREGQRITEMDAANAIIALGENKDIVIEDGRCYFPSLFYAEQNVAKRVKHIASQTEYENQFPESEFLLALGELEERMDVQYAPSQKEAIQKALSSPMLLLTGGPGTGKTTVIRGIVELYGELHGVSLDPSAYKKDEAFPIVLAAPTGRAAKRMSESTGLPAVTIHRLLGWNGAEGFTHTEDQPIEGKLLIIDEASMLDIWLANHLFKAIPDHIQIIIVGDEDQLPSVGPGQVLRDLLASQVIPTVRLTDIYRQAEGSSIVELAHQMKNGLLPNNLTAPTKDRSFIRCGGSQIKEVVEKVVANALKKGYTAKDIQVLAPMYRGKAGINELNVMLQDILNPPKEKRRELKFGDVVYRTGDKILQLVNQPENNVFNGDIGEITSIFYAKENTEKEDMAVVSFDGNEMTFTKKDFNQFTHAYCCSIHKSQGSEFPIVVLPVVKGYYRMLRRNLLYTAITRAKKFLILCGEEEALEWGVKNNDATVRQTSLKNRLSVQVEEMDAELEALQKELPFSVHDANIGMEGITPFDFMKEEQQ

[2] = target: T1, RecD2 (His-tagged); assay: EMSA; 2 mM MgCl2, 1 mM ATPgS; EMSA: 0.25 nM 32P-DNA, buffer B (composition not in material), 1 mM ATPgS, 2 mM MgCl2 (or 10 mM), 15 min 37 C, then 0.05% glutaraldehyde 15 min 37 C, 8% PAGE; single-molecule: buffer A (composition not in material); settings: protein: recombinant; tags: 6xHis (not removed); label: 32P
[3] = target: T1, RecD2 (His-tagged); assay: EMSA; 10 mM MgCl2, 1 mM ATPgS; EMSA: 0.25 nM 32P-DNA, buffer B (composition not in material), 1 mM ATPgS, 2 mM MgCl2 (or 10 mM), 15 min 37 C, then 0.05% glutaraldehyde 15 min 37 C, 8% PAGE; single-molecule: buffer A (composition not in material); settings: protein: recombinant; tags: 6xHis (not removed); label: 32P
[4] = substrate: Nc1ncnc2c1ncn2[C@@H]1O[C@H](COP(=O)(O)OP(=O)(O)OP(=O)(O)O)[C@@H](O)[C@H]1O; assay: coupled ATP/NADH spectrophotometric ATPase assay, Michaelis-Menten fit; assay type: biochemical, Bacillus subtilis; settings: ssDNA cofactor dT80 (3 μM nucleotides), 5 nM RecD2, 2 mM MgCl2, pH 7.5, 37 °C, turnover printed as Vmax per RecD2

3'-tailed duplex (30 nt tail)
K half [1]: 14 nM

5'-tailed duplex (30 nt tail)
K half [1]: 16 nM

B1: 30-nt random ssDNA (22-M-30) (ssDNA)
DNA: CTAATTTACGCTAACCTACGATGAGCAGCC
apparent K (half saturation) [2]: 212 ± 17.7 nM | apparent K (half saturation) [3]: 246 ± 20.2 nM

B2: poly(dT)30 (ssDNA)
DNA: TTTTTTTTTTTTTTTTTTTTTTTTTTTTTT
apparent K (half saturation) [2]: ~6 nM

B3: 60-nt random ssDNA (17-M-60) (ssDNA)
DNA: ACGGCCTAGATCGTGAACCTGCAGGTAAGGGGCTGCTCATCGTAGGTTAGCGTAAATTAG
apparent K (half saturation) [2]: 13.5 ± 4.2 nM | apparent K (half saturation) [3]: 44.2 ± 14.1 nM

B4: 80-nt random ssDNA (17-M-80) (ssDNA)
DNA: ACGGCCTAGAACGGCCTAGAACGGCCTAGATCGTGAACCTGCAGGTAAGGGGCTGCTCATCGTAGGTTAGCGTAAATTAG
apparent K (half saturation) [2]: 11.1 ± 5.4 nM | apparent K (half saturation) [3]: 39.1 ± 15.4 nM

B5: RecD2 (BsRecD2) (Bacillus subtilis subsp. subtilis str. 168) (protein)
chain: T1 sequence
Km [4]: 82 µM | kcat [4]: ~223 s⁻¹

Source: publication PMC12143592, “Bacterial RecD2 is a processive single-stranded DNA translocase with strand-switching capacity at DNA forks” (Nucleic Acids Research, 2025)
